{
  "source": "patent US12366576B2",
  "about": "“Compositions, assays, and methods for direct modulation of fatty acid metabolism” (Dana-Farber Cancer Institute, Inc., priority 2016, dated 2025)",
  "key": {"MCL-1ΔNΔC [1]": {"target": "T1, MCL-1ΔNΔC (Homo sapiens, UniProt Q07820)", "T1 construct": "The MCL-1ΔNΔC construct was grown and expressed in E. coli as previously described; made in house; host or cells: E. coli BL21(DE3)", "T1 sequence (Q07820 172-320 limits assumed, stated change not applied)": "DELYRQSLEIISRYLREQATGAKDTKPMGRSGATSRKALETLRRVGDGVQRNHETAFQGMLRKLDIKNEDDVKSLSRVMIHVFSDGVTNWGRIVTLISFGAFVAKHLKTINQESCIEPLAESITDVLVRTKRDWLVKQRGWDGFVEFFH", "assay": "19F NMR binding study with fluorinated SAHB", "details": "fluorinated SAHB 25 μM, MCL-1ΔNΔC 0-45 μM", "experimental": "(§1) To measure the direct binding interaction, ^19F NMR binding studies were conducted using fluorinated analogs of MCL-1 SAHBD. […] Both SAHBs, however, bind MCL-1ΔNΔC, as illustrated by a chemical shift of the peptide NMR peak in both cases (FIG. 15). […] To perform these experiments, N-terminal Btn-PEG analogs of the peptides were immobilized onto streptavidin probes that were then placed into protein solutions at a variety of concentrations to measure ligand-target association.\nMCL-1ΔNΔC. The MCL-1ΔNΔC construct was grown and expressed in E. coli as previously described (see, e.g., Stewart, Nat Chem Biol., 6(6):595-601 (2010)). Transformed BL21(DE3) E. coli were grown at 37° C. to an OD of 0.8, after which they were induced with 0.5 mM IPTG. […]\nTo determine binding of SAHBs to VLCAD, fluorinated SAHB (25 μM) and VLCAD (0-125 μM) were mixed together in VLCAD FPLC buffer including 10% D2O to a final volume of 500 μL. […] The extent to which VLCAD bound the peptide was determined by measuring the peak width at half height (ν1/2) of the peptide ^19F signal. […] MCL-1ΔNΔC binding to SAHBs causes a change in the ^19F chemical shift of the peptide resulting in two peptide signals (instead of peak broadening), so extent of binding was quantified by measuring the peak height of “unbound” peptide relative to the bound peptide signal."}, "Mcl-1^F/F CreER^T2 cells": {"system": "Mcl-1^F/F CreER^T2 cells", "details": "vehicle and tamoxifen exposed cells; except at the highest dose applied (100 μM)"}, "VLCAD": {"target": "T2, VLCAD (Homo sapiens, UniProt P49748)", "T2 construct": "10x His (N); made in house; host or cells: E. coli BL21(DE3), pET19b", "T2 sequence (P49748 40-655)": "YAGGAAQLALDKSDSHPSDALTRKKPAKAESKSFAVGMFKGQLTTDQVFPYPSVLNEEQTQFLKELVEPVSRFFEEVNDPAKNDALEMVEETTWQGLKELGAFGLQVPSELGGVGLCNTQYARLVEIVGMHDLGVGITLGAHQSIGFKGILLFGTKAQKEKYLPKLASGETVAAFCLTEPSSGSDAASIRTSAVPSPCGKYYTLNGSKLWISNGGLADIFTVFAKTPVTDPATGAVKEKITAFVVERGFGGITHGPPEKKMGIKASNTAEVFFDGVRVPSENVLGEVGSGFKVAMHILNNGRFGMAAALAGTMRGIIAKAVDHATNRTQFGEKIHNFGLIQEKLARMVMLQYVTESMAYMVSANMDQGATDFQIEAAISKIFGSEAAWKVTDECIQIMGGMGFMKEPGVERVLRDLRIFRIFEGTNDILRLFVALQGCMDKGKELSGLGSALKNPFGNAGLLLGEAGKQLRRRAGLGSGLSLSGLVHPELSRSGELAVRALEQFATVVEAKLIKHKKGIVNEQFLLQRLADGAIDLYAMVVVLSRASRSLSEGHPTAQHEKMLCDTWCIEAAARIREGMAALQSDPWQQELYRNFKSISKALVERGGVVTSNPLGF", "assay": "Biolayer interferometry", "format": "binding", "details": "Biotin-PEG peptide immobilized on streptavidin sensors", "experimental": "as §1\nVLCAD. Mature human VLCAD lacking its cleavable leader sequence (aa 40-655) (NP_000009.1) was subcloned into the pET19b vector (Novagen) using NdeI and XhoI restriction sites. Correct insertion was confirmed by DNA sequencing. The 10× His-tagged VLCAD construct was expressed in BL21(DE3) E. coli, and once cells reached an OD of 0.8 after growing at 37° C., they were induced with 0.5 mM […] (IPTG) (Gold Biotechnology I2481C) at 37° C. for 4 hours. Bacterial pellets were resuspended in lysis buffer (500 mM NaCl, 50 mM HEPES, 5% glycerol, pH 7.5, complete protease inhibitor tablet) and lysed by microfluidization (M-110L; Microfluidics). […]\nBLI binding measurements were performed using an Octet Red384 System (ForteBio). […] Binding parameters were calculated using the accompanying Octet Software version 9 (ForteBio)."}, "MCL-1ΔNΔC [2]": {"target": "T1, MCL-1ΔNΔC", "assay": "Biolayer interferometry", "format": "binding", "details": "Biotin-PEG peptide immobilized on streptavidin sensors"}},
  "note": "Bridge positions count the residues as written; N and C are the ends. Square brackets hold non-standard residues; d marks the D form. Ends that are not written are not given here. S5 = C=CCCC[C@](C)(N)C(=O)O",
  "data": [
    {"substance": "MCL-1 SAHBD: hydrocarbon-stapled peptide mimicking the MCL-1 BH3 domain (Stabilized Alpha-Helix of BCL-2 Domain), SEQ ID NO:19 (RKALETLRRVGDGV[S5]RNH[S5]TAF; staple 15-19)", "values": [
      {"measurement": "19F NMR binding to MCL-1ΔNΔC (chemical shift of the peptide peak)", "setting": "MCL-1ΔNΔC [1]", "value": "binds directly"},
      {"measurement": "cytotoxicity (cell viability)", "setting": "Mcl-1^F/F CreER^T2 cells", "value": "Essentially no cytotoxicity"},
      {"measurement": "biolayer interferometry association with VLCAD", "setting": "VLCAD", "value": "engages VLCAD"},
      {"measurement": "biolayer interferometry association with MCL-1", "setting": "MCL-1ΔNΔC [2]", "value": "bind to MCL-1"}
    ]}
  ]
}
